Oligonucleotides are written 5' to 3', each unit as a sugar letter and its base; * is a phosphorothioate linkage, no mark a phosphodiester; rarer units and linkages stand in square brackets, end groups in braces. Plain capitals give the bases only. d = 2'-deoxy (DNA); r = 2'-OH (RNA); f = 2'-fluoro
Experiments:
[1] = molecular target: human vWF A1 domain (SEQ ID NO 5) (Homo sapiens, UniProt P04275, T1381A); assay: 3-point dot blot screen, human vWF A1 domain; assay type: binding; conditions: 100 nM human vWF A1 domain
Source text: (§1) When a significant positive ratio of binding of RNA in the presence of human or rabbit vWF A1 domain versus in the absence of protein was seen, the pools were cloned using the TOPO TA cloning kit (Invitrogen, Cat. #45-0641, Carlsbad, Calif.) according to the manufacturer's instructions. Round 9 and 12 pool templates were cloned and sequenced (125 total sequences), producing 48 unique clones. All unique clones were transcribed, desalted, 5-^32P end-labeled, and assayed in a 3-point dot blot screen (no protein target control, 100 nM human vWF A1 domain (SEQ ID NO 5, FIG. 3), or 100 nM rabbit vWF A1 domain (SEQ ID NO 6, FIG. 3). The data is presented in the third and fourth columns of Table 4 below as the ratio of the fraction of the aptamer bound to the nitrocellulose in the presence of the target protein to the fraction of aptamer bound in the absence of the target protein.
(§2) When a significant positive ratio of binding of RNA in the presence of human or rabbit vWF A1 domain (SEQ ID NOS 4 and 6, respectively) versus in the absence of protein was seen, the pools were cloned using the TOPO TA cloning kit (Invitrogen Cat. #45-0641, Carlsbad, Calif.) according to the manufacturer's instructions. Round 9 and 12 pool templates were cloned and sequenced (185 total sequences), producing 78 unique clones within 3 sequence families. All unique clones were transcribed, desalted, 5-^32P end-labeled, and assayed in a 3-point dot blot screen (no protein target control, 100 nM human vWF A1 domain (SEQ ID NO 5), or 100 nM rabbit vWF A1 domain (SEQ ID NO 6). The data are presented in the third and fourth columns of Table 9 below as the ratio of the fraction of the aptamer bound to the nitrocellulose in the presence of the target protein to the fraction of aptamer bound in the absence of the target protein. Of the three sequence families, members of Family #1 and #2 and two individual, non-family aptamers, bound to both human vWF domain A1 (SEQ ID NO 5) and rabbit vWF domain A1 (SEQ ID NO 6).
(§3) All unique clones were assayed in a 3-point dot blot screen (no protein target control, 100 nM human vWF A1 domain (SEQ ID NO 5), or 100 nM rabbit vWF A1 domain (SEQ ID NO 6). The data are presented in the third and fourth columns of Table 14 below as the ratio of the fraction of the aptamer bound to the nitrocellulose in the presence of the target protein to the fraction of aptamer bound in the absence of the target protein.

[2] = system: rabbit vWF A1 domain (SEQ ID NO 6); assay: 3-point dot blot screen, rabbit vWF A1 domain; assay type: binding; conditions: 100 nM rabbit vWF A1 domain, ratio of fraction bound with target to without
Source text: as §1, §2, §3
When a significant positive ratio of binding of DNA in the presence of human or rabbit vWF A1 domain versus in the absence of protein was seen, the pools were cloned using the TOPO TA cloning kit (Invitrogen Cat. #45-0641, Carlsbad, Calif.) according to the manufacturer's instructions. Round 7 and 11 pool templates were cloned and sequenced (218 total sequences), producing 146 unique clones within 12 sequence families of which sequences from six families show vWF target binding activity. All unique clones were assayed twice in a 3-point dot blot screen (no protein target control, 20 nM full length human vWF (Calbiochem Cat. #681300, La Jolla, Calif.), or 20 nM rabbit vWF A1 domain. The data is presented in the third and fourth columns of Table 17 below as the ratio of the fraction of the aptamer bound to the nitrocellulose in the presence of the target protein to the fraction of aptamer bound in the absence of the target protein.

[3] = rRdY aptamers, ratio of fraction bound with target to without
[4] = DNA SELEX 1 aptamers, ratio of fraction bound with target to without

Sequence of human vWF A1 domain (SEQ ID NO 5) (P04275 with tags, fused parts or gaps T1381A): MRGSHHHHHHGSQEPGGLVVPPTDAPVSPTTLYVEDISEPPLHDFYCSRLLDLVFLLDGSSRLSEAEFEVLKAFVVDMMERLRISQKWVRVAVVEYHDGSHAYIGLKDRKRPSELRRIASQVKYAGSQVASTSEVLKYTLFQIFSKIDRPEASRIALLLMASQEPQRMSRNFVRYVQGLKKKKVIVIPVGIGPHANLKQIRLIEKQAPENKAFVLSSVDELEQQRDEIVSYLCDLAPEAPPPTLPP
Sequence of rabbit vWF A1 domain (SEQ ID NO 6) (as listed by the source): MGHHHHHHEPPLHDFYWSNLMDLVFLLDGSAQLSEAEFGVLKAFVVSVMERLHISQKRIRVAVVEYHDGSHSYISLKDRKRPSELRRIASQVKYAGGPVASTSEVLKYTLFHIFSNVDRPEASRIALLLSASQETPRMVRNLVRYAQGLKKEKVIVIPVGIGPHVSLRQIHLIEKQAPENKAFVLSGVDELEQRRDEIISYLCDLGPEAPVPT

| Molecule | Screen- Human/No Protein [1, 4] | Screen- Rabbit/No Protein ([2]; DNA SELEX 1 aptamers) | also measured |
| --- | --- | --- | --- |
| AMX205.G9: rRdY aptamer clone (nucleic acid) rGrGrArGdCrGdCrAdCdTdCrArGdCdCrAdCrArAdCdTrGrGdTdTrGdTdCrGrGdTrGrAdTrGrGdCrAdTdTrArAdCrGdCrGrGrAdCdCrArGrGdCrAdTrGdTdTdTdCrGrAdCdCdTdCdTdCdTrGdCdTrArGdC |  |  | Screen- Human/No Protein [1, 3]: 1.30; Screen- Rabbit/No Protein ([2]; rRdY aptamers): 1.73 |
| AMX201.A8: rRfY aptamer clone (nucleic acid) rGrGrArGfCrGfCrAfCfUfCrArGfCfCrAfCrGfCfUrGfUrAfCrAfCfUrGrAfUrGfUfUrGfUrArAfCrAfUrGfUrAfCfCfCfCfCfUrGrGfCfUrGfUfUfUfCrGrAfCfCfUfCfUfCfUrGfCfUrArGfC |  |  | Screen- Human/No Protein ([1]; rRfY aptamers, ratio of fraction bound with target to fraction bound without target): 1.82; Screen- Rabbit/No Protein ([2]; rRfY aptamers): 1.51 |
| AMX200.G11: DNA SELEX 1 aptamer clone (nucleic acid, DNA, backbone not given here, DNA SELEX 1 aptamer clone) DNA: CTACCTACGATCTGACTAGCGGAACGAGAATGCTGATGGATTGCTCAGGTCTGCTGGCTGCTTACTCTCATGTAGTTCC | 1.73 | 1.28 |  |
| AMX200.A7: DNA SELEX 1 aptamer clone (nucleic acid, DNA, backbone not given here, DNA SELEX 1 aptamer clone) DNA: CTACCTACGATCTGACTAGCGGAATGAGAATGCTGATGGATTGTTCAGGTCTGCTGGCTGCTTACTCTCATGTAGTTCC | 0.97 | 0.96 |  |
| AMX200.B9: DNA SELEX 1 aptamer clone (nucleic acid, DNA, backbone not given here, DNA SELEX 1 aptamer clone) DNA: CTACCTACGATCTGACTAGCGGAATGAGAATGCTGATGGATTGCTCAGGTCTGCTGACTGCTTACTCTCATGTAGTTCC | 2.54 | 2.06 |  |
| AMX200.B1: DNA SELEX 1 aptamer clone (nucleic acid, DNA, backbone not given here, DNA SELEX 1 aptamer clone) DNA: CTACCTACGATCTGACTAGCGGAATGAGAATGCTGATGGATTGCCCAGGTCTGCTGGCTGCTTACTCTCATGTAGTTCC | 4.01 | 3.01 |  |
| AMX200.D1: DNA SELEX 1 aptamer clone (nucleic acid, DNA, backbone not given here, DNA SELEX 1 aptamer clone) DNA: CTACCTACGATCTGACTAGCGGAATGAGAGTGCTGATGGATTGCTCAGGTCTACTGGCTGCTTACTCTCATGTAGTTCC | 1.26 | 1.06 |  |
| AMX200.D11: DNA SELEX 1 aptamer clone (nucleic acid, DNA, backbone not given here, DNA SELEX 1 aptamer clone) DNA: CTACCTACGATCTGACTAGCGGAATAAGAATGCTGATGGATTGCTCAGGTCTGCTGGCTGCTTACTCTCATGTAGTTCC | 3.34 | 2.04 |  |
| AMX200.B8: DNA SELEX 1 aptamer clone (nucleic acid, DNA, backbone not given here, DNA SELEX 1 aptamer clone) DNA: CTACCTACGATCTGACTAGCGGAATGAGAATGTTGGTGGATTGCTCAGGTCTGCTGGCTGCTTACTCTCATGTAGTTCC | 4.13 | 3.13 |  |
| AMX200.F9: DNA SELEX 1 aptamer clone (nucleic acid, DNA, backbone not given here, DNA SELEX 1 aptamer clone) DNA: CTACCTACGATCTGACTAGCGGAATGAGGATGCTGATGGATTGGTCAGGTCTGCTGGCTGCTTACTCTCATGTAGTTCC | 0.97 | 0.99 |  |
| AMX200.D8: DNA SELEX 1 aptamer clone (nucleic acid, DNA, backbone not given here, DNA SELEX 1 aptamer clone) DNA: CTACCTACGATCTGACTAGCGGAATGAGAATGTTGATGGATTGCTCAGGTCTGCTGGCTGCTTACTCTCATGTAGTTCC | 2.86 | 1.61 |  |
| AMX200.E8: DNA SELEX 1 aptamer clone (nucleic acid, DNA, backbone not given here, DNA SELEX 1 aptamer clone) DNA: CTACCTACGATCTGACTAGCGGAATGAGGATGCTGGTGGATTGCTCAGGTCTGTTGGCTGCTTACTCTCATGTAGTTCC | 1.04 | 1.03 |  |
| AMX199.F10: DNA SELEX 1 aptamer clone (nucleic acid, DNA, backbone not given here, DNA SELEX 1 aptamer clone) DNA: CTACCTACGATCTGACTAGCGAAACACTAGGTTGGTTAGGATTGGTGTGTTTCCGTTCTGCTTACTCTCATGTAGTTCC | 1.17 | 1.24 |  |
| AMX199.F6: DNA SELEX 1 aptamer clone (nucleic acid, DNA, backbone not given here, DNA SELEX 1 aptamer clone) DNA: CTACCTACGATCTGACTAGCGAAACACTAGGTTGGTTAGGATTGGTGTGTTCCCGCTCTGCTTACTCTCATGTAGTTCC | 1.37 | 1.30 |  |
| AMX199.A10: DNA SELEX 1 aptamer clone (nucleic acid, DNA, backbone not given here, DNA SELEX 1 aptamer clone) DNA: CTACCTACGATCTGACTAGCGGAACACTAGGTTGGTTAGGATTGGTGTGTTCCCGTTTTGCTTACTCTCATGTAGTTCC | 1.25 | 1.29 |  |
| AMX199.G5: DNA SELEX 1 aptamer clone (nucleic acid, DNA, backbone not given here, DNA SELEX 1 aptamer clone) DNA: CTACCTACGATCTGACTAGCGAAACACTAGGTTGGTTAGGATTGGTGTGTTCCCGCCCTGCTTACTCTCATGTAGTTCC | 1.41 | 1.34 |  |
| AMX199.F11: DNA SELEX 1 aptamer clone (nucleic acid, DNA, backbone not given here, DNA SELEX 1 aptamer clone) DNA: CTACCTACGATCTGACTAGCGAAACACTAGGTTGGTTAGGATTGGTGTGTTTCTGCTCTGCTTACTCTCATGTAGTTCC | 1.44 | 1.35 |  |
| AMX199.G1: DNA SELEX 1 aptamer clone (nucleic acid, DNA, backbone not given here, DNA SELEX 1 aptamer clone) DNA: CTACCTACGATCTGACTAGCGAAACACTAGGTTGGTTAGGATTGGTGTGTTCCCGCTTTGCTTACTCTCATGTAGTTCC | 1.19 | 1.26 |  |
| AMX199.H7: DNA SELEX 1 aptamer clone (nucleic acid, DNA, backbone not given here, DNA SELEX 1 aptamer clone) DNA: CTACCTACGATCTGACTAGCGAAACACTAGGTTGGTTAGGATTGGTGTGTTTCCGCTTTGCTTACTCTCATGTAGTTCC | 1.32 | 1.14 |  |
| AMX205.A7: rRdY aptamer clone (nucleic acid) rGrGrArGdCrGdCrAdCdTdCrArGdCdCrAdCdTdCrArArGrGrGrGrGdTdCrGdCrGdTrGrGrGrGrAdCrGrArArGrGrGdTdTrGdCrArGdTrGdTrGdTdCrGdTdTdTdCrGrAdCdCdTdCdTdCdTrGdCdTrArGdC |  |  | Screen- Human/No Protein [1, 3]: 1.24; Screen- Rabbit/No Protein ([2]; rRdY aptamers): 1.37 |
| AMX203.A6: rRdY aptamer clone (nucleic acid) rGrGrArGdCrGdCrAdCdTdCrArGdCdCrAdCdCrAdCrGrGrGrGrAdCrGrGrGdTrArGrGrGdCrGrGrGdCrGrArGrGdTrGrGdTrGrGdCrAdTdTrArGdCrGdTdTdTdCrGrAdCdCdTdCdTdCdTrGdCdTrArGdC |  |  | Screen- Human/No Protein [1, 3]: 1.16; Screen- Rabbit/No Protein ([2]; rRdY aptamers): 1.16 |
| AMX203.F9: rRdY aptamer clone (nucleic acid) rGrGrArGdCrGdCrAdCdTdCrArGdCdCrAdCdTrGrArArGrGrGdTrArArGrGrAdCrGrArGrGrArGrGrGdTrAdTrAdCrArGdTrGdTrGdCrGdCrGdTrGdTrAdTdTdTdCrGrAdCdCdTdCdTdCdTrGdCdTrArGdC |  |  | Screen- Human/No Protein [1, 3]: 1.45; Screen- Rabbit/No Protein ([2]; rRdY aptamers): 1.29 |
